B1: RelB, endogenous (other, human, UniProt Q01201 1-579, looked up)
chain: MLRSGPASGPSVPTGRAMPSRRVARPPAAPELGALGSPDLSSLSLAVSRSTDELEIIDEYIKENGFGLDGGQPGPGEGLPRLVSRGAASLSTVTLGPVAPPATPPPWGCPLGRLVSPAPGPGPQPHLVITEQPKQRGMRFRYECEGRSAGSILGESSTEASKTLPAIELRDCGGLREVEVTACLVWKDWPHRVHPHSLVGKDCTDGICRVRLRPHVSPRHSFNNLGIQCVRKKEIEAAIERKIQLGIDPYNAGSLKNHQEVDMNVVRICFQASYRDQQGQMRRMDPVLSEPVYDKKSTNTSELRICRINKESGPCTGGEELYLLCDKVQKEDISVVFSRASWEGRADFSQADVHRQIAIVFKTPPYEDLEIVEPVTVNVFLQRLTDGVCSEPLPFTYLPRDHDSYGVDKKRKRGMPDVLGELNSSDPHGIESKRRKKKPAILDHFLPNHGSGPFLPPSALLPDPDFFSGTVSLPGLEPPGGPDLLDDGFAYDPTAPTLFTMLDLLPPAPPHASAVVCSGGAGAVVGETPGPEPLTLDSYQAPGPGDGGTASLVGSNMFPNHYREAAFGGGLLSPGPEAT
notes: mature

Legend:
[1] = molecular target: T1, NF-κB2/p100, endogenous (human, UniProt Q00653 1-900); test: anti-RelB immunoprecipitation from nuclear extracts of Ramos cells, western blot
T1 construct: mature
T1 sequence (looked up): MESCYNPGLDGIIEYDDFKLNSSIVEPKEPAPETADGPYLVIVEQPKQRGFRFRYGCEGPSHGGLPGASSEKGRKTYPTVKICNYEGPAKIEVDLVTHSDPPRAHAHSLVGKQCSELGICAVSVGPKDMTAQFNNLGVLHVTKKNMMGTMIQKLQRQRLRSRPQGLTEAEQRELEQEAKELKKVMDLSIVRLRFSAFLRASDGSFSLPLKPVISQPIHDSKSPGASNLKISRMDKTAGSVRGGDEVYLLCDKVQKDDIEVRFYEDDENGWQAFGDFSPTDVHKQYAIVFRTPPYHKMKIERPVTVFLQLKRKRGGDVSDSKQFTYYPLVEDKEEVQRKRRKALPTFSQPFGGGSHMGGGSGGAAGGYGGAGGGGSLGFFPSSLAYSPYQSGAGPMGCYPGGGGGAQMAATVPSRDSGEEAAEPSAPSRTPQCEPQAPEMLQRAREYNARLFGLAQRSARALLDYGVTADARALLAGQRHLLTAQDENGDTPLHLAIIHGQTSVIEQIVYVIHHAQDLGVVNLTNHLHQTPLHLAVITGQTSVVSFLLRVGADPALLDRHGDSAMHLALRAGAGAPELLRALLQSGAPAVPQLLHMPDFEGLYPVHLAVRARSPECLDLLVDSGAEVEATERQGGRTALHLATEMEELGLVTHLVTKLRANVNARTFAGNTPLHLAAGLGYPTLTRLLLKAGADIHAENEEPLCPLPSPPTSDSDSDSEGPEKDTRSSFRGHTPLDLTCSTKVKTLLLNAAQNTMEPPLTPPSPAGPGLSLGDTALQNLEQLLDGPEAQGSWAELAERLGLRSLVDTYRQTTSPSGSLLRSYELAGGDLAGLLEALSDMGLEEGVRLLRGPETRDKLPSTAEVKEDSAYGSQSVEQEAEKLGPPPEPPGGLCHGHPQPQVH
Protocol: (§1) FIG. 3g is an immunoprecipitation analysis with RelB of various NF-κB proteins from nuclear extracts of the Ramos cells, 15 minutes and 4 hours after the application of TNF or CD70 to the cells. Levels of p100, NS and p52 were detected by western blot analysis.
(§2) For immunoprecipitation of the NF-κB proteins, nuclear extracts from 10-20×10⁶ cells were diluted to achieve the following composition: 0.5% NP-40, 10 mM HEPES pH 7.9, 150 mM NaCl, 1 mM EDTA, 1 mM EGTA, 1 mM dithiothreitol (DTT), 1 mM PMSF, and 1× complete protease inhibitor cocktail. Anti-RelB antibody preadsorbed to protein-A-Sepharose beads (Amersham Biosciences) was incubated with precleared nuclear lysates for 2 hours at 4° C. The immunoprecipitates were analyzed by SDS-PAGE using 4-12% Bis-Tris NuPAGE gels (Invitrogen), and the gels were subjected to western blotting as described above.

[2] = molecular target: T2, p55 TNF receptor, endogenous in Ramos cells (human, UniProt P19438 30-455); test: western blot of the p55 TNF receptor complex from Ramos cells (FIG. 6a)
T2 construct: whole, on cells; TNF-receptor complex precipitated as described by Zhang et al., 2000
T2 sequence (looked up): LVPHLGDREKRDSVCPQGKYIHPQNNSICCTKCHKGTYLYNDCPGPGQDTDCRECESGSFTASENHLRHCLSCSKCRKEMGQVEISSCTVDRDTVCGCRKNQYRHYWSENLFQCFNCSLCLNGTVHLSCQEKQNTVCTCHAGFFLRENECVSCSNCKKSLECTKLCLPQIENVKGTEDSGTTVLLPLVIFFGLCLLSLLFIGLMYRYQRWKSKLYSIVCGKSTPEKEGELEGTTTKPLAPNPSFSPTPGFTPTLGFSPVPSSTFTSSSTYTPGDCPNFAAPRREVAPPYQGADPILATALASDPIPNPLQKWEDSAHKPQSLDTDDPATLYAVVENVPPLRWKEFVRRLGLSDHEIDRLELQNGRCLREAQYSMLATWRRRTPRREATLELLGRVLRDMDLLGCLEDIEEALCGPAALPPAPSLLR
Protocol: Transfections, immunoblotting and immunoprecipitations were performed as described in Example 2 and Example 3 of the Examples section. For immunoprecipitation of the CD70/CD27 ligand-receptor complexes from resting PBMC and Ramos cells, cell lysates were prepared as described for the kinase tests aforementioned and incubated for 4 hours at 4° C. with 25 μl of 50% M2-FLAG agarose beads per ml of lysate. The TNF-receptor complex was precipitated as described (Zhang et al., 2000). The signalosome from cell lysates was immunoprecipitated using a 1:1 mixture of two different antibodies against IKK1 (M-280 and H-744, Santa Cruz). Immunoprecipitation was allowed to continue for 2 hours at 4° C., using 10 μg of anti-IKKα antibodies adsorbed to 25 μl of 50% protein-A-Sepharose beads per ml of lysate.

[3] = molecular target: B1; test: anti-RelB immunoprecipitation from nuclear extracts of Ramos cells, western blot
Protocol: as §1, §2

[4] = molecular target: T3, NIK 624-947 (C-terminal part of NIK), yeast two-hybrid construct (human, UniProt Q99558 624-947); test: yeast two-hybrid, β-galactosidase colour assay in SFY526
T3 construct: Yeast two-hybrid construct used in the β-galactosidase assay in SFY526 yeast; also called C-terminally mutant (NIK 624-947); the C-terminal portion of NIK; not shown: Gal4 fusion partner from pGBKT7 or pGADT7
T3 sequence (Q99558 624-947): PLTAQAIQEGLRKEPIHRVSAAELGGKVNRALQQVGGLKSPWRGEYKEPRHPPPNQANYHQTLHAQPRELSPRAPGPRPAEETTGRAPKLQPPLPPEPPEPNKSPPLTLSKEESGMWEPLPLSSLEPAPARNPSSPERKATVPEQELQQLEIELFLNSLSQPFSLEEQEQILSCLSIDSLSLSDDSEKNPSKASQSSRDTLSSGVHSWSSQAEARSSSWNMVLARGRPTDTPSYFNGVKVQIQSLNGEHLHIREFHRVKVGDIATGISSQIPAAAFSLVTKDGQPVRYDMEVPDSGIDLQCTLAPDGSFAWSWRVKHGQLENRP
Protocol: FIG. 1a illustrates yeast two-hybrid binding assays of NIK to SIVA. The binding of NIK and its C-terminally mutant (NIK 624-947) to the C-terminal part of SIVA (amino acids 123-175 in SIVA1 or 58-110 in SIVA2) or TRAF2, was assessed using transformed SFY526 yeast. The development of a strong color reaction within 1 hour and 3 hours is indicted as ‘++’ and ‘+’, respectively; ‘−’ indicates no color development within 24 h.
A BamHI/XhoI digested NIK insert from the pcNIK vector was subcloned into BamHI/SalI sites of the Gal4 DNA-binding domain vector pGBKT7 (Clontech). A pre-transformed human bone marrow library (HL4053AH, Clontech) was subjected to two-hybrid screening using pGBKT7-NIK as the bait, according to the manufacturer's instructions (Yeast protocol handbook, Clontech—www.clontech.com) Positive clones were identified by quadruple selection and β-galactosidase activity assay. Binding of the SIVA clone to NIK and NIK624-947 was reconfirmed and binding of NIK to TRAF2 was assessed-by a β-galactosidase expression assay using the yeast SFY526 reporter strain (Clontech) and the pGBKT7 and pGADT7 vectors.

B1: binds [1].

B2: IκBα, endogenous (other, human, UniProt P25963 1-317, looked up)
chain: MFQAAERPQEWAMEGPRDGLKKERLLDDRHDSGLDSMKDEEYEQMVKELQEIRLEPQEVPRGSEPWKQQLTEDGDSFLHLAIIHEEKALTMEVIRQVKGDLAFLNFQNNLQQTPLHLAVITNQPEIAEALLGAGCDPELRDFRGNTPLHLACEQGCLASVGVLTQSCTTPHLHSILKATNYNGHTCLHLASIHGYLGIVELLVSLGADVNAQEPCNGRTALHLAVDLQNPDLVSLLLKCGADVNRVTYQGYSPYQLTWGRPSTRIQQQLGQLTLENLQMLPESEDEESYDTESEFTEFTEDELPYDDCVFGGQRLTL
notes: mature
B2: binds [2].

B3: NF-κB2/p52, endogenous (other, human, UniProt Q00653 1-454, looked up)
chain: MESCYNPGLDGIIEYDDFKLNSSIVEPKEPAPETADGPYLVIVEQPKQRGFRFRYGCEGPSHGGLPGASSEKGRKTYPTVKICNYEGPAKIEVDLVTHSDPPRAHAHSLVGKQCSELGICAVSVGPKDMTAQFNNLGVLHVTKKNMMGTMIQKLQRQRLRSRPQGLTEAEQRELEQEAKELKKVMDLSIVRLRFSAFLRASDGSFSLPLKPVISQPIHDSKSPGASNLKISRMDKTAGSVRGGDEVYLLCDKVQKDDIEVRFYEDDENGWQAFGDFSPTDVHKQYAIVFRTPPYHKMKIERPVTVFLQLKRKRGGDVSDSKQFTYYPLVEDKEEVQRKRRKALPTFSQPFGGGSHMGGGSGGAAGGYGGAGGGGSLGFFPSSLAYSPYQSGAGPMGCYPGGGGGAQMAATVPSRDSGEEAAEPSAPSRTPQCEPQAPEMLQRAREYNARLFGLA
B3: binds [3].

B4: C-terminal part of SIVA (amino acids 123-175 in SIVA1 or 58-110 in SIVA2), yeast two-hybrid clone (other)
chain: GKAVCGQCERALCGQCVRTCWGCGSVACTLCGLVDCSDMYEKVLCTSCAMFET
notes: Clone from a human bone marrow two-hybrid library; also called SIVA clone; C-terminal SIVA fragment; not shown: Gal4 fusion partner of the library clone / pGADT7 or pGBKT7 vector; not specified
B4: binds [4].

Source: patent US20080025968A1 (YEDA RESEARCH AND DEVELOPMENT, published 2008)
